The results in this text go back to PMC8756792.

This assay deals with Ribulose-5-phosphate epimerase of Leishmania donovani (Leishmania donovani). In words: SEC. On the technique in general: Size exclusion chromatography separates by hydrodynamic size, large species first.

For “Ribulose-5-phosphate epimerase of Leishmania donovani (enzyme)”, the stoichiometry N (in general, the number of molecules, sites or subunits per partner or assembly) was determined as 2.
